Assay results from patent US8138148B2, “GDNF derived peptides” (Copenhagen University, priority 2005, dated 2012).

Experiments:
Assay type in all cases: cell-based, rat
[1] = system: primary hippocampal neurons; experiment: Neurite outgrowth assay, monocultures of primary hippocampal neurons; settings: monoculture, stimulated 24 hours; GDNF 1-100 ng/ml, peptides 0.1-27 μg/ml; versus medium alone
Experimental: (§1) Two different versions of the neurite outgrowth assay were used in this study, monocultures and co-cultures.
(§2) In monocultures, neurons are grown directly on plastic and the only neuritogenic stimulus is the one presented by the added substance. In co-cultures, neurons are grown on top of a confluent monolayer of fibroblasts expressing NCAM-140 (LBN110) or NCAM-negative control fibroblasts (LVN212). NCAM on the neurons interact with NCAM on LBN110 cells thereby stimulating neurite outgrowth from the neurons. This system thus permits the study of NCAM-NCAM interactions and interactions between NCAM and other molecules.
(§3) For all experiments cells were grown in neurobasal medium with supplements as described above in a final volume of 300 μl/well in 8-well LabTek® Permanox Chamber slides or 500 μl/well in 4-well LabTek® Permanox Chamber slides.
For monocultures, primary hippocampal neurons were seeded in 8-well LabTek® Permanox Chamber slides at a density of 10,000 cells/well.
(§4) To evaluate the effect peptides on neurite outgrowth, GDNF and the peptides, G1, G2, G3, A1, A2, A3, N1, N2 and N3 were diluted to the appropriate concentrations and added to the neurons approximately 10 minutes after seeding. Medium alone was added to controls, and cells were incubated for 24 hours.
Neurite outgrowth experiments were terminated after the stated time by fixating the cells. To visualize neurons and their neurites, immunostaining of GAP-43 was performed. This staining is specific for neurons. Transfected cells and their neurites should be visible without immunostaining due to the fluorescence emitted by GFP. […] GFP is a cytoplasmic protein, and since thin neurites only contain a small volume of cytoplasm, GFP is only found in small amounts in most neurites. Therefore, a double-staining protocol, where cells were immunostained against GFP and GAP-43, was adopted. This protocol allowed the identification of transfected cells on the basis of GFP-staining in combination with visualization of neurites based on GAP-43-staining. […]

hippocampal neurons [2] = experiment: Neurite outgrowth assay, co-cultures of hippocampal neurons on control fibroblasts or NCAM-expressing fibroblasts; settings: 24 hours
Experimental: as §1, §2, §3
(§5) For cocultures, L-cells were seeded in 8-well LabTek® Permanox Chamber slides at a density of 100.000 cells/well, except for transfection experiments where cells were seeded in 4-well LabTek® Permanox Chamber slides at a density of 200.000 cells/well. L-cells were grown for 24 hours in DMEM supplemented with 10% (v/v) FCS, 1% (v/v) glutamax, 100 U/ml penicillin, 100 μg/ml streptomycin, 2.5 μg/ml fungizone, and 567 μg/ml neomycin (G418), followed by washing twice in neurobasal medium with supplements before primary hippocampal neurons were seeded at a density of 7.000 cells/well in 8-well slides or 20.000 cells/well in 4-well slides.
as §4
Neurite outgrowth experiments were terminated after the stated time by fixating the cells. To visualize neurons and their neurites, immunostaining of GAP-43 was performed. This staining is specific for neurons. Transfected cells and their neurites should be visible without immunostaining due to the fluorescence emitted by GFP. […] GFP is a cytoplasmic protein, and since thin neurites only contain a small volume of cytoplasm, GFP is only found in small amounts in most neurites. Therefore, a double-staining protocol, where cells were immunostained against GFP and GAP-43, was adopted. This protocol allowed the identification of transfected cells on the basis of GFP-staining in combination with visualization of neurites based on GAP-43-staining.
Without prior removal of the medium 300 μl/well (8-well slides) or 500 μl/well (4-well slides) of a PBS solution containing 0.4 mM CaCl2, 0.05 M sucrose and 8% (v/v) formaldehyde was added to the cultures for 20 minutes. Cells were then washed 10 minutes in PBS followed by washing in PBS with 1% (w/v) BSA for 20 minutes, after which cells were incubated with primary antibodies overnight at 4° C.
Rabbit anti-rat GAP-43 antibodies were diluted 1:1000 for staining of untransfected cells and 1:2000 for staining of transfected cells. Mouse anti-GFP antibodies were diluted 1:1000. Antibodies were diluted in a PBS solution containing 7% (v/v) FCS to block unspecific binding, 50 mM glycine to block formaldehyde used for fixation, 0.2% (v/v) saponin to permeabilize cells, and 0.02% (v/v) NaN3 to preserve antibodies for later use.
The next day cells were washed 10 minutes in PBS followed by washing in PBS with 1% (w/v) BSA for 20 minutes. Cells were then incubated with secondary antibodies diluted in PBS with 1% (w/v) BSA for one hour at room temperature. Goat anti-rabbit IgG antibodies conjugated to Alexa 488 were diluted 1:1000 for untransfected cells and 1:2000 for transfected cells. Goat anti-mouse IgG antibodies conjugated to Alexa 546 were diluted 1:1000. Finally cells were washed 3×7 minutes in PBS and mounted with fluorescent mounting medium. […]

hippocampal neurons [3] = experiment: Neurite outgrowth of hippocampal neurons transfected with dominant negative FGFR; settings: 10 ng/ml GDNF or 3 μg/ml GDNFp1, 18 hours, dnFGFR vs empty vector
Experimental: as §5
Additionally, neurons were transiently transfected with a dominant negative version of the FGFR (dnFGFR), As an alternative to the use of a pharmacological FGFR inhibitor, The dnFGFR plasmid encodes an FGFR that lacks the kinase domain. This mutant receptor inhibits the function of wild type FGFR by engaging in dimers that lack kinase activity. Transfection with an empty vector served as control. Transfection was also done with wtFGFR in order to assess the effect of overexpressing the FGFR.
Transfections were performed with a Nucleofector™ device and a Rat Neuron Nucleofector™ kit (Amaxa Inc., Gaithersburg, Md., USA). This transfection method is based on electroporation in combination with a Nucleofector™ solution containing lipophilic agents. These agents form liposomes containing the plasmid DNA, which then enter the cells during electroporation. The method allows transfection of undividing cells such as neurons. 3 μg of the plasmid of interest was mixed with the Nucleofector™ solution and primary hippocampal neurons were resuspended in the mixture, electroporated in the Nucleofector™ device, and transferred to neurobasal medium with supplements and 5% (v/v) FCS. Cells were then incubated for 2 hours after which they were resuspended in medium without serum, counted, seeded and incubated for 6 hours before GDNF or GDNFp1 was added. Medium alone was added to control and cells were incubated for 18 hours.
All transient transfections in this study included co-transfection with a plasmid encoding EGFP, which allows the identification of transfected cells. To ensure that all EGFP-expressing cells also are transfected with the plasmid of interest, a ratio of […] between the EGFP-encoding plasmid and the plasmid of interest was used (i.e. 0.5 μg EGFP-encoding plasmid was used for each transfection).
Neurite outgrowth experiments were terminated after the stated time by fixating the cells. To visualize neurons and their neurites, immunostaining of GAP-43 was performed. This staining is specific for neurons. Transfected cells and their neurites should be visible without immunostaining due to the fluorescence emitted by GFP. […]

B1: GDNF: glial cell line-derived neurotrophic factor, full-length protein used as stimulus (protein)
chain: SPDKQMAVLPRRERNRQAAAANPENSRGKGRRGQRGKNRGCVLTAIHLNVTDLGLGYETKEELIFRYCSGSCDAAETTYDKILKNLSRNRRLVSDKVGQACCRPIAFDDDLSFLDDNLVYHILRKHSAKRCGCI
With B1 the “neurite outgrowth, overall effect of treatment (one-way ANOVA)” value [1] was “overall statistically significant effect”, the “neurite outgrowth, overall effect of treatment, neurons grown on NCAM-expressing fibroblasts” value (hippocampal neurons [2]; co-culture on NCAM-expressing fibroblasts, GDNF 1-100 ng/ml, peptides 0.1-81 μg/ml) was “overall significant effect” and the “neurite outgrowth, overall effect of treatment, neurons grown on control fibroblasts” value (hippocampal neurons [2]; co-culture on control fibroblasts, GDNF 1-100 ng/ml, peptides 0.1-81 μg/ml) was “overall significant effect”. The “difference between neurite outgrowth on control fibroblasts and on NCAM-expressing fibroblasts across concentrations (one-way ANOVA)” value (hippocampal neurons [2]; difference per concentration, expressed as percentage of control) was “mean differences are not all the same”, the “neurite outgrowth mediated by the substance after transfection with dominant negative FGFR, on NCAM-expressing fibroblasts” value (hippocampal neurons [3]; NCAM-expressing fibroblasts) was “decreases neurite outgrowth” and the “neurite outgrowth mediated by the substance after transfection with dominant negative FGFR, on control fibroblasts” value (hippocampal neurons [3]; control fibroblasts) was “decreases neurite outgrowth”.
